Patent US20060024661A1, “Modulation of CRF potentiation of NMDA receptor currents via CRF receptor 2” (The Regents of the University of California, priority 2003, published 2006)

Key:
[1] = target: CRF receptor 2 (CRF-R2) (mouse) (UniProt Q60748); assay: cell-based or functional assay
[2] = target: CRF receptor 1 (CRF-R1) (mouse) (UniProt P35347); assay: cell-based or functional assay
Chain of CRF receptor 1 (CRF-R1) (mouse) (P35347 24-415): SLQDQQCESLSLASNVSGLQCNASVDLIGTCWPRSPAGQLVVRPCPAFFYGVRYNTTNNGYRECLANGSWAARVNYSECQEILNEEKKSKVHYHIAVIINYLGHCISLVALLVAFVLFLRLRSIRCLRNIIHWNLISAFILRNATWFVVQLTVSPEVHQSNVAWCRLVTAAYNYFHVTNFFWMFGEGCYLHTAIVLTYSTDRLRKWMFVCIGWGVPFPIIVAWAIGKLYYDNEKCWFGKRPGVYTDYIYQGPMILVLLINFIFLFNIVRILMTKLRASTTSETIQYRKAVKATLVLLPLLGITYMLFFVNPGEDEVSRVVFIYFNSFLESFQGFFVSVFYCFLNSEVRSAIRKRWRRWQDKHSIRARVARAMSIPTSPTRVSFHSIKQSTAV

Chain of CRF receptor 2 (CRF-R2) (mouse) (Q60748 20-411): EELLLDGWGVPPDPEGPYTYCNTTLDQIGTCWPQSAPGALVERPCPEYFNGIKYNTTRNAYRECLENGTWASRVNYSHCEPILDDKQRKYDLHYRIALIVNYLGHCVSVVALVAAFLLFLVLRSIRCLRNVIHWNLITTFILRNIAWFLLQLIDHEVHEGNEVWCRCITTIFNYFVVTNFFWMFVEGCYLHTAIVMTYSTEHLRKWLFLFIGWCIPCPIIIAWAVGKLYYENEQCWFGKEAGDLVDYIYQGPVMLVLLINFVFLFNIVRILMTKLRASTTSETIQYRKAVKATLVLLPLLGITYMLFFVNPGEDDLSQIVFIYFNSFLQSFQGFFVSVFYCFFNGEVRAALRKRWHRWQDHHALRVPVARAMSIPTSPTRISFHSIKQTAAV

| NMDAR EPSCs (% of baseline) 15 mins after CRF onset in the presence of 30 nM Antisauvagine-30 [1] | hippocampal CA1 field potentials (% of baseline), CRF 1 µM plus 3 µM CP-154,526 (selective CRF-R1 antagonist, small molecule) [2] | hippocampal CA1 field potentials (% of baseline), CRF 1 µM, 15 mins after CRF onset [2] | NMDAR-mediated EPSCs (% of baseline) in VTA dopamine neurons, CRF 100 nM, 25 mins after CRF onset [1] | Substance |
| --- | --- | --- | --- | --- |
| 114% |  |  |  | Antisauvagine-30 (peptide) |
|  | 82.9% | 143% | 128% | human/rat corticotrophin-releasing factor (CRF) (from UniProt P06850 154-194) (peptide) |
